Measurements reported in the supplement of paper PMC10567573.

B1: TEKT4 (parent)
chain: YARYHQAFADRDQSERQRHESQQL

Variants of: B1
Assay: protein stability index of a GFP-peptide fusion (GPS, HEK-293T) (PSI 1-6); higher = more stable
Details: c terminus: a fixed tail appended
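Further: lentivirally expressed fusions sorted by FACS into six bins by GFP to DsRed ratio, PSI derived from sequencing read proportions per bin multiplied by bin number.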

Compared with YARYHQAFADRDQSEWQRHESQQL [R16W], YARYHQAFADRDQSEYQRHESQQL [R16Y] is lower in protein stability index: 2.07 for the first, 1.91 for the second.

Compared with YARYHQAFADRDQSERARHESQQL [Q17A], YARYHQAFADRDQSERCRHESQQL [Q17C] is higher in protein stability index: 2 for the first, 2.07 for the second.

First: YARYHQAFADRDQSERDRHESQQL [Q17D]
Second: YARYHQAFADRDQSERERHESQQL [Q17E]
The protein stability index of the first is higher: 2.21 for the first, 1.63 for the second.

First: YARYHQAFADRDQSERFRHESQQL [Q17F]
Second: YARYHQAFADRDQSERGRHESQQL [Q17G]
The protein stability index of the first is higher: 2.56 for the first, 1.87 for the second.

Compared with YARYHQAFADRDQSERHRHESQQL [Q17H], YARYHQAFADRDQSERIRHESQQL [Q17I] is higher in protein stability index: 1.9 for the first, 2.34 for the second.

Going from YARYHQAFADRDQSERKRHESQQL [Q17K] to YARYHQAFADRDQSERLRHESQQL [Q17L], the protein stability index rises from 2.13 to 2.32.

Going from YARYHQAFADRDQSERMRHESQQL [Q17M] to YARYHQAFADRDQSERNRHESQQL [Q17N], the protein stability index falls from 1.73 to 1.68.

Going from YARYHQAFADRDQSERPRHESQQL [Q17P] to YARYHQAFADRDQSERRRHESQQL [Q17R], the protein stability index falls from 2.11 to 1.94.

First: YARYHQAFADRDQSERSRHESQQL [Q17S]
Second: YARYHQAFADRDQSERTRHESQQL [Q17T]
The protein stability index of the first is lower: 1.87 for the first, 2 for the second.

Compared with YARYHQAFADRDQSERVRHESQQL [Q17V], YARYHQAFADRDQSERWRHESQQL [Q17W] is lower in protein stability index: 2.31 for the first, 2.22 for the second.

Compared with YARYHQAFADRDQSERYRHESQQL [Q17Y], YARYHQAFADRDQSERQAHESQQL [R18A] is lower in protein stability index: 2.72 for the first, 1.9 for the second.

First: YARYHQAFADRDQSERQCHESQQL [R18C]
Second: YARYHQAFADRDQSERQDHESQQL [R18D]
The protein stability index of the first is higher: 2.6 for the first, 2.36 for the second.

First: YARYHQAFADRDQSERQEHESQQL [R18E]
Second: YARYHQAFADRDQSERQFHESQQL [R18F]
The protein stability index of the first is lower: 2.2 for the first, 2.23 for the second.

Compared with YARYHQAFADRDQSERQGHESQQL [R18G], YARYHQAFADRDQSERQHHESQQL [R18H] is lower in protein stability index: 3.52 for the first, 2.81 for the second.

Compared with YARYHQAFADRDQSERQIHESQQL [R18I], YARYHQAFADRDQSERQKHESQQL [R18K] is higher in protein stability index: 2.15 for the first, 2.26 for the second.

Going from YARYHQAFADRDQSERQLHESQQL [R18L] to YARYHQAFADRDQSERQMHESQQL [R18M], the protein stability index falls from 2.18 to 1.78.

Going from YARYHQAFADRDQSERQNHESQQL [R18N] to YARYHQAFADRDQSERQPHESQQL [R18P], the protein stability index rises from 2.01 to 2.26.

Going from YARYHQAFADRDQSERQQHESQQL [R18Q] to YARYHQAFADRDQSERQSHESQQL [R18S], the protein stability index rises from 2.24 to 2.59.

First: YARYHQAFADRDQSERQTHESQQL [R18T]
Second: YARYHQAFADRDQSERQVHESQQL [R18V]
The protein stability index of the first is higher: 2.45 for the first, 2.31 for the second.

Compared with YARYHQAFADRDQSERQWHESQQL [R18W], YARYHQAFADRDQSERQYHESQQL [R18Y] is higher in protein stability index: 2.01 for the first, 2.82 for the second.

Compared with YARYHQAFADRDQSERQRAESQQL [H19A], YARYHQAFADRDQSERQRCESQQL [H19C] is higher in protein stability index: 2.11 for the first, 2.39 for the second.

First: YARYHQAFADRDQSERQRDESQQL [H19D]
Second: YARYHQAFADRDQSERQREESQQL [H19E]
The protein stability index of the first is higher: 2.25 for the first, 2.19 for the second.

Compared with YARYHQAFADRDQSERQRFESQQL [H19F], YARYHQAFADRDQSERQRGESQQL [H19G] is higher in protein stability index: 1.48 for the first, 2.64 for the second.

Going from YARYHQAFADRDQSERQRIESQQL [H19I] to YARYHQAFADRDQSERQRKESQQL [H19K], the protein stability index rises from 2.53 to 2.63.

Going from YARYHQAFADRDQSERQRLESQQL [H19L] to YARYHQAFADRDQSERQRMESQQL [H19M], the protein stability index rises from 1.65 to 2.35.

First: YARYHQAFADRDQSERQRNESQQL [H19N]
Second: YARYHQAFADRDQSERQRPESQQL [H19P]
The protein stability index of the first is lower: 2.08 for the first, 2.51 for the second.

First: YARYHQAFADRDQSERQRQESQQL [H19Q]
Second: YARYHQAFADRDQSERQRRESQQL [H19R]
The protein stability index of the first is higher: 2.51 for the first, 2.05 for the second.

Going from YARYHQAFADRDQSERQRSESQQL [H19S] to YARYHQAFADRDQSERQRTESQQL [H19T], the protein stability index falls from 2.25 to 1.97.

First: YARYHQAFADRDQSERQRVESQQL [H19V]
Second: YARYHQAFADRDQSERQRWESQQL [H19W]
The protein stability index of the first is higher: 2.31 for the first, 1.94 for the second.

Going from YARYHQAFADRDQSERQRYESQQL [H19Y] to YARYHQAFADRDQSERQRHASQQL [E20A], the protein stability index rises from 1.61 to 2.51.

Going from YARYHQAFADRDQSERQRHCSQQL [E20C] to YARYHQAFADRDQSERQRHDSQQL [E20D], the protein stability index rises from 2.01 to 2.36.

Going from YARYHQAFADRDQSERQRHFSQQL [E20F] to YARYHQAFADRDQSERQRHGSQQL [E20G], the protein stability index rises from 1.76 to 2.19.

Compared with YARYHQAFADRDQSERQRHHSQQL [E20H], YARYHQAFADRDQSERQRHISQQL [E20I] is lower in protein stability index: 2.22 for the first, 1.57 for the second.

Compared with YARYHQAFADRDQSERQRHKSQQL [E20K], YARYHQAFADRDQSERQRHLSQQL [E20L] is lower in protein stability index: 2.06 for the first, 1.64 for the second.

First: YARYHQAFADRDQSERQRHMSQQL [E20M]
Second: YARYHQAFADRDQSERQRHNSQQL [E20N]
The protein stability index of the first is lower: 1.74 for the first, 2.18 for the second.

Going from YARYHQAFADRDQSERQRHPSQQL [E20P] to YARYHQAFADRDQSERQRHQSQQL [E20Q], the protein stability index falls from 2.23 to 1.53.

First: YARYHQAFADRDQSERQRHRSQQL [E20R]
Second: YARYHQAFADRDQSERQRHSSQQL [E20S]
The protein stability index of the first is lower: 2.13 for the first, 2.3 for the second.

First: YARYHQAFADRDQSERQRHTSQQL [E20T]
Second: YARYHQAFADRDQSERQRHVSQQL [E20V]
The protein stability index of the first is higher: 2.27 for the first, 2.21 for the second.

Compared with YARYHQAFADRDQSERQRHWSQQL [E20W], YARYHQAFADRDQSERQRHYSQQL [E20Y] is higher in protein stability index: 1.51 for the first, 2.06 for the second.

First: YARYHQAFADRDQSERQRHEAQQL [S21A]
Second: YARYHQAFADRDQSERQRHECQQL [S21C]
The protein stability index of the first is lower: 2.01 for the first, 2.77 for the second.

Compared with YARYHQAFADRDQSERQRHEDQQL [S21D], YARYHQAFADRDQSERQRHEEQQL [S21E] is higher in protein stability index: 1.78 for the first, 2.5 for the second.

Going from YARYHQAFADRDQSERQRHEFQQL [S21F] to YARYHQAFADRDQSERQRHEGQQL [S21G], the protein stability index rises from 1.59 to 2.32.

Going from YARYHQAFADRDQSERQRHEHQQL [S21H] to YARYHQAFADRDQSERQRHEIQQL [S21I], the protein stability index rises from 1.99 to 2.41.

Compared with YARYHQAFADRDQSERQRHEKQQL [S21K], YARYHQAFADRDQSERQRHELQQL [S21L] is higher in protein stability index: 1.46 for the first, 1.83 for the second.

Going from YARYHQAFADRDQSERQRHEMQQL [S21M] to YARYHQAFADRDQSERQRHENQQL [S21N], the protein stability index rises from 1.65 to 1.98.

Compared with YARYHQAFADRDQSERQRHEPQQL [S21P], YARYHQAFADRDQSERQRHEQQQL [S21Q] is lower in protein stability index: 2.39 for the first, 1.59 for the second.

Going from YARYHQAFADRDQSERQRHERQQL [S21R] to YARYHQAFADRDQSERQRHETQQL [S21T], the protein stability index rises from 2.46 to 3.06.
